Results on one molecule are retold here after US20180246086A1.

The target in this assay is Hapten-1-BSA, a general complete antigen of type I pyrethroid (bovine) (UniProt P02769). The experiment in a line: indirect non-competitive ELISA, plate coated with Hapten-1-BSA at 2.0, 1.0, 0.5 and 0.25 µg/mL, antibody titrated. (An ELISA detects its analyte on a solid surface through an enzyme-linked reagent.)
Hapten-1-BSA, a general complete antigen of type I pyrethroid (bovine), sequence (P02769 25-607 limits assumed, form in doubt): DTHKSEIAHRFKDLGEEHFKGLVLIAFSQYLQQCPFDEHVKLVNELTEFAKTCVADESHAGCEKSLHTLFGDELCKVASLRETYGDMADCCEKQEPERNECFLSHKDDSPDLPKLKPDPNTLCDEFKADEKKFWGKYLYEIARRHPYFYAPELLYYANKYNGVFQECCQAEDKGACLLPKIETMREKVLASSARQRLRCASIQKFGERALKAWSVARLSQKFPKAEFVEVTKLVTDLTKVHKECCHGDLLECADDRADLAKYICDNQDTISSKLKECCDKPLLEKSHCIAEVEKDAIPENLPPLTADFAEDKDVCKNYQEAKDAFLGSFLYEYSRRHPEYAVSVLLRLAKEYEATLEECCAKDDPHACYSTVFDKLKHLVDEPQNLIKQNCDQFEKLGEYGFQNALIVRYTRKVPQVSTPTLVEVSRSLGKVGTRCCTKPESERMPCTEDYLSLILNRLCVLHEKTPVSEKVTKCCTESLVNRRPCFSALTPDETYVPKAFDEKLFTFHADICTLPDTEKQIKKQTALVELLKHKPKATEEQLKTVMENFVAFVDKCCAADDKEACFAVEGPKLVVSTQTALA

B1: universal monoclonal antibody against type I pyrethroid secreted by hybridoma cell line QW8# (antibody, IgG2a, V domains shown)
VH: QVTLKESGPGILQPSQTLSLTCSFSGFSLSTYGIGIGWIRQSSGRGLEWLAHIWWNDNRYYNIALKSRLTISKDASNNQFFLKLASVDTADIATYYCVRGYGRPFYAMDYWGQGTTVTVSS
VL: QAVVTQESALTTSPGETVTLTCRSSTGAVTTSNYVNWVQEKPDHLFTGLIGGTNNRGPGVPARFSGSLIGDKAALTITGTQTEDEAIYFCALWYSNHWVFGGGTKLTVL
The molecule B1 gave a Ka of 2.16e+08 M⁻¹.
